{"source": "paper PMC3985631", "about": "“The crystal structure of TDP-43 RRM1-DNA complex reveals the specific recognition for UG- and TG-rich nucleic acids”", "key": {"TDP-43 hN12 WT [1]": {"biological_target": "T1, TDP-43 hN12 WT (human, UniProt Q13148 1-259)", "T1 sequence (Q13148 1-259)": "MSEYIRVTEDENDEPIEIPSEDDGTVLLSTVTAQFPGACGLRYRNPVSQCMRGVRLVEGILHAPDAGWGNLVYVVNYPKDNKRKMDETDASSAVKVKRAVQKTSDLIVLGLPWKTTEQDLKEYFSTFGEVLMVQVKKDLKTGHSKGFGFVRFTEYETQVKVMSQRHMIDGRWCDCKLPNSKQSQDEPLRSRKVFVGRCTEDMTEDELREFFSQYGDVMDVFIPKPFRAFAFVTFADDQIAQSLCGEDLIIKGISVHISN", "test": "filter binding; 2 uM protein; Filter binding: 50 mM phosphate, 50 mM imidazole, 10 mM beta-mercaptoethanol, pH 7.5, room temperature, 30 min, 10 pmol 32P-labelled nucleic acid", "details": "protein: recombinant; chain copies: 2"}, "TDP-43 hN12 WT [2]": {"biological_target": "T1, TDP-43 hN12 WT", "test": "filter binding; Filter binding: 50 mM phosphate, 50 mM imidazole, 10 mM beta-mercaptoethanol, pH 7.5, room temperature, 30 min, 10 pmol 32P-labelled nucleic acid", "details": "protein: recombinant; chain copies: 2; label: 5'-32P"}, "TDP-43 RRM1 (hRRM1) WT [3]": {"biological_target": "T2, TDP-43 RRM1 (hRRM1) WT (human, UniProt Q13148 101-191)", "T2 sequence (Q13148 101-191)": "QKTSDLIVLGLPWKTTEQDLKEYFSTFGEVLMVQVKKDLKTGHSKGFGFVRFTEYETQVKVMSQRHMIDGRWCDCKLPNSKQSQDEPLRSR", "test": "filter binding; Filter binding: 50 mM phosphate, 50 mM imidazole, 10 mM beta-mercaptoethanol, pH 7.5, room temperature, 30 min, 10 pmol 32P-labelled nucleic acid", "details": "protein: recombinant; tags: N-terminal His (pQE30); label: 5'-32P"}, "TDP-43 RRM1 (hRRM1) WT [4]": {"biological_target": "T2, TDP-43 RRM1 (hRRM1) WT", "test": "crystal structure 2.75 A; Filter binding: 50 mM phosphate, 50 mM imidazole, 10 mM beta-mercaptoethanol, pH 7.5, room temperature, 30 min, 10 pmol 32P-labelled nucleic acid", "details": "protein: recombinant; tags: N-terminal His (pQE30)"}}, "data": [{"binder": "CGCGUGCCCCUG (ssRNA)", "note": "[PS2]", "values": [{"measurement": "binding signal", "setting": "TDP-43 hN12 WT [1]", "result": "6.2 ± 0.8", "unit": "% bound"}]}, {"binder": "AGAGUGAAAAUG (ssRNA)", "note": "[PS1]", "values": [{"measurement": "binding signal", "setting": "TDP-43 hN12 WT [1]", "result": "23.1 ± 0.8", "unit": "% bound"}]}, {"binder": "UGUGUGUGUGUGUGUGUGUGUGUGUGUGUG (ssRNA)", "note": "[(UG)15 RNA]", "values": [{"measurement": "Kd", "setting": "TDP-43 hN12 WT [2]", "result": "5.3 ± 1.2", "unit": "nM"}]}, {"binder": "UGUGUGUGUGUG (ssRNA)", "note": "[(UG)6 RNA]", "values": [{"measurement": "binding signal", "setting": "TDP-43 hN12 WT [1]", "result": "67.9 ± 1.9", "unit": "% bound"}]}, {"binder": "TGTGTGTGTGTGTGTGTGTGTGTGTGTGTG (ssDNA)", "note": "[(TG)15 DNA]", "values": [{"measurement": "Kd", "setting": "TDP-43 RRM1 (hRRM1) WT [3]", "result": "20.6 ± 1.8", "unit": "nM"}]}, {"binder": "GTTGAGCGTT (ssDNA, 2'-methylseleno-adenosine at A5)", "note": "[10-nt Se-labelled ssDNA]", "values": [{"measurement": "binding result", "setting": "TDP-43 RRM1 (hRRM1) WT [4]", "result": "binds"}]}, {"binder": "CACACACACACA (ssRNA)", "note": "[(CA)6 RNA]", "values": [{"measurement": "binding signal", "setting": "TDP-43 hN12 WT [1]", "result": "0.6 ± 1", "unit": "% bound"}]}]}
